From the supplement of paper PMC12042874
± gives the uncertainty stated by the source.

experiment: amyloid nucleation score (Sup35N fusion, yeast selection) (log enrichment); library NNK2; higher = more nucleation; inactive = no reads after selection
Outline: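 The nucleation score is the log enrichment of output over input reads, calculated with DiMSum and centred on the mode score of non-aggregating sequences. Sequences with under 100 input reads were excluded. Reads came from Illumina sequencing of plasmid inserts from psi-negative yeast expressing Sup35N fused to peptides of 20 random codons, induced 24 hours with 100 μM copper sulfate and grown 7 days at 30°C without adenine and uracil.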

Substance	amyloid nucleation score
CDFDIHERMCPYCYIIQVGD	-0.081 ± 0.65
IPVYVAVIVG	inactive
VWTLYYHHIGSAFSTCNRLF	4.5 ± 0.062
CQAVRRILCYWTAYDIERAV	1.16 ± 0.22
AWFMCSFECVTRSVKHALR	0.523 ± 0.64
NETCGYLNKNWLL	0.04 ± 0.45
VGSLYICDLAPGKHKYCSVV	0.266 ± 0.56
PNSPRMNESLSFIFPGDVSG	-0.474 ± 1
LACTKQFQVAVVFPDYTFIA	3.71 ± 0.064
ISCGVSLPIANCTMTHIARV	-0.23 ± 0.49
CVSSARNIHFNGVVKCVRYR	2.79 ± 0.054
SFVLSSHKA	0.175 ± 0.61
RDREIVQSLLHVLSQASLFV	-0.456 ± 0.35
TMRVHRYRTN	-0.493 ± 0.63
YKPRGHEVRSVG	-0.752 ± 0.48
QEVFSN	-0.849 ± 1.1
RSHVVH	1.18 ± 0.68
RKDSCCSVNRCDAMSFVRGI	0.073 ± 1.1
RFTALADGYRFTLSLGIVSG	2.28 ± 0.12
YSGKNIAGLNFSIRCCSSIE	8.793 ± 0.036
KRRSLGLLISLVTMGDK	0.917 ± 0.31
GLYRGTLVYKTYVLGNNKPL	-1.33 ± 1.1

Substance	amyloid nucleation score
YDYFTLSTTGLWLAIYMWWC	0.287 ± 0.56
TCFMRCRTCNLRVIHSDVF	5.546 ± 0.048
TLYKFM	-0.476 ± 0.74
KHEIQVS	0.33 ± 0.56
TGGISYLD	inactive
VCHAGTWLQSGRTRYSIVRN	3.51 ± 0.12
KRILQMDHRLLNHNSELLKR	-0.397 ± 0.45
CVFASNKRMEGVDKKLRVRN	0.403 ± 0.62
VDVPMNMIRWSQCNQ	1.22 ± 0.59
CRKCFT	0.717 ± 0.4
LDVTHN	0.6 ± 0.35
SYMFDSEVQVRTDFLLFCYI	0.346 ± 0.17
PKVLGFFK	inactive
FFTHTWLRRLKTLCVSFVPK	-0.516 ± 0.45
WGDRLSVKFMCVDALGRVNL	0.019 ± 0.56
NLVILFGKWRRFLFAQWNWF	inactive
KYMRLSSPAGSAVPLWTLYL	0.148 ± 1
GYLQGLCRG	-0.047 ± 1.1
CFSKMFNV	-1.03 ± 0.53
FVCPFVVCYAGIGGRGGYVM	0.173 ± 1.1
YNSNNRAILSLLHDQRNLYG	0.643 ± 0.16
VLYQGALRYGNVRRGHLIRF	0.105 ± 1.1

Substance	amyloid nucleation score
TWRYHFADVGSILDLVG	-0.277 ± 0.4
EDRVCAYLNRKYCRYLGHSM	1.29 ± 0.35
QSVYFILNNFKWFPGSTGM	7.062 ± 0.048
RVGACRMVRHYVGTWVQQLL	0.246 ± 1.1
RGSGSVMNSGYEAASRRLGG	-0.12 ± 0.46
NTIEGPRYYGTFAISNGVTQ	0.824 ± 0.48
VLNITEIYFVG	8.125 ± 0.051
DDSFGVAVMKVWEMRGWSAL	1.16 ± 0.27
IVDISCI	-0.541 ± 1
LVWTVPTGVLFRHGC	1.57 ± 0.24
GMNRL	-0.869 ± 0.55
SIRARGLAMRSYSPT	-0.093 ± 0.55
NFVSISMGNIYMSQLGRWTA	8.33 ± 0.051
GMLMIVGARSRDVPYYGRCD	0.004 ± 1.1
FDWMI	0.926 ± 0.28
IRTLSFMIANSAL	-1.16 ± 1.1
IYFMFVVYDSIHQE	1.32 ± 0.2
YTCCLL	5.914 ± 0.035
VWPQCYLSLVF	-0.082 ± 0.49
SYVIP	-1.06 ± 1
FRNPHYASHGQYHYRFNMRY	inactive
DSLEGVSCSLMSLSTLTGEC	0.143 ± 0.54

Substance	amyloid nucleation score
KVKGLILDHDYRFRI	inactive
FLNDI	inactive
SNSGINHIRCCLYPLFYLIM	2.35 ± 0.13
SFKRFQ	-0.347 ± 1.1
EKIFPLMGVKN	inactive
ENGAKVLVIVYKGYPLVPWV	-0.089 ± 0.46
MLVVLMFSLSDSI	1.67 ± 0.1
FSNTYHFCISNYMWLNEVLM	1.36 ± 0.19
TVRANLKTRCMSRTTNQEHT	1.85 ± 0.15
QLLRCNRRSKMLDR	-0.156 ± 0.76
WTTLGGPVGREENGRRQAEG	1.17 ± 0.23
DYWFLCAICLWVFTGMYLVE	0.01 ± 0.28
RWAFHCKSRDVFNMRKL	inactive
LKWVTFEST	-0.418 ± 1.1
LKGGIFRV	inactive
TKEFGECFIQMIMYNGRDIL	1.88 ± 0.1
WDQCLMLMCPNE	-0.291 ± 0.64
HFSYKPVEYPLFSRFKPVFN	-0.025 ± 0.79
KCVLLWWVIKYVCVDTDAAV	-0.174 ± 0.74
LGCMNDNMSNYYCGHR	-1.31 ± 0.55
HLGVGFLWSVRFIYMTFGFS	inactive
